Results as given in patent publication US20240124857A1, “COMPOSITION FOR GUT HEALTH” (DUPONT NUTRITION BIOSCIENCES APS, priority 2021, published 2024).

B1: CRC22383: GDA1/CD39 family enzyme, accession WP_058475114.1, SEQ ID NO:11 (protein, listed as Legionella quateirensis)
chain: ADNPCTNHQCIAVIDAGSTGSRLHVFSYDVDETRSPININEIWNKKIKPGFATIEPNSNTIDAYLTTLLSGAPNQQIPVYFYATAGMRLLPVSKQKKYYDELQHWFSQQSQWQLVEAKTITGNDEALYDWLSVNYHLGTLQKSLNQSVGVMDMGGASVQIVFPIQKNSELNTRSQVELDLYGQHYTLYVQSFLGLGQTEVAHQFLNSAPCFSNDYPLPDGESGQGNASACEQEVSRLMTEVHKVNNVIQPLLAANPVDSWYSIGGISNLADSSLFHFENSKLTNQNLLQQADSQVCHQQWDSLNSQFPDDEYVYQYCLFSAYYYALMVDGYGIVPDQSINYIPPAQNLDWTMGVVLHH
B2: CRC22606: GDA1/CD39 family enzyme, accession OQW93475.1, SEQ ID NO:15 (protein, listed as Beggiatoa sp.)
chain: ETNGPAACHIVYDAGSSGTRLYIYEQQDKAWLEHEGPKVSALADPVREIRGKHWKDAESVTIEVVSALDSIKQDGPVKGDKPAWKAFDWTKHCQIKSAGVYATAGMRLAEQANKERSVTLWASLKQKLAAKLGPTVDIEARTLTGYEEGLYAWLAVREQQPDDSFAIAEMGGASAQITFPCAKCDENDPDTKTVQLSGKHLQIYSYSFLGLGQDEASHSLGFPTSCANGIGTQQSGWKAQDCANQIQLTGSKGIRDPYDFDGEQRGAHEQPPIAQADSNRWFLTGAFNYMNASNIETYCLKDPKLSEEESFCFRSIYPEKYLETLKIPVNSPKMNVSWTQGAVICKANSCLEAATKTPPLCRWLDKGCLP
B3: CRC22386: GDA1/CD39 family enzyme, accession WP_173236575.1, SEQ ID NO:12 (protein, listed as Legionella antarctica)
chain: GTVSCNEHQCIAVIDAGSTGSRIHVYAYDMDETNTPVHINEVWTKKIKPGFATIEPNYESIEAYLVTLLSGAPNQDIPVYFYATAGMRLLPASKQKLYYQELQRWFSQQHQWRLIDAKTITGNEEALYDWLSVNYHLDTLKSIQNKSVGVMDMGGASVQIVFPIQKNEEINSNSQVELDLYGHHVNLYVHSFLGLGQTEMSHQFLNSVSCFANDYPLPDGESGRGNAPSCKQEVSSLMNGVHGVNKTIQPVLTANPVDTWFAIGGLTNLADNKLFHFENGELTNQNLMQQADSQICHQQWDKLNSEFPNDDYVYEYCLLSAYYYALMVDGYGIYPEQTVNYVSSALNLDWTKGVVLHH
B4: CRC22387: GDA1/CD39 family enzyme, accession WP_127099836.1, SEQ ID NO:13 (protein, listed as Legionella sp.)
chain: QSSPCEKQQCIAIVDAGSTGSRLHIYAYDLDVTKTPIHIKELWNKKITPGFARIEANTNTIDSYLTILLADSPIKKIPIYFYATAGMRLLPQMKQKKYYDELSSWFKKHSEWQLVEAKTITGNEEGLYDWLSVNYHLGNFESPTNKSIGVMDMGGASVQIVFPIAETPTINDKSQIQVNLYGRHYNLYVHSFLGLGQTEMSHQFLNSASCFVNNYPLPDGAEGQGNALSCEQEVSSLMNQVHGVNQLIQPLLAANPVDSWYSIGGISNLADSQFFNFQHSQLTNQDLLEQADSQICHQQWEDINNQYPDDDYVYQYCLFSAYYYALMVDGYGLYPEQTINYLPPQQNIDWTTGVVLHQQR
B5: CRC22605: GDA1/CD39 family enzyme, accession WP_133471262.1, SEQ ID NO:14 (protein, listed as Paraglaciecola sp.)
chain: QSKKPCYIVYDAGSSGTRLYIYEQLGANLISHEGPKVSALADPIRYTHGKDLSDLDTITNEVASALDLIKLDGPLEEGKPKWSGFDWSKQCEAQSVKVFATAGMRIAEQINPADSLVLWQTLASKINAKVGHNIKVEARTLTGFEEGLFAWLSVKDVYPSGHYGMVEMGGASSQITFPCPQCSLANDAVKTVTVDGKPIQIYSYSYLGLGQNEAPYSLPFGVAGQVPKSCSYGVGANNPDWTIASCAVEIPITAKGSNTDIIDPYNYTKTGTKGTTNTLPAAHKNIPKWLLMGAFNYAKETDIDDFCFNQHDGYYNAFTACFNPIYLDKYLKTLNIQAEQSSKVDVSWTQGAVICQIENCLATITPPPVCRWMKSGCLAY
B6: CRC22620: GDA1/CD39 family enzyme, accession NBS62745.1, SEQ ID NO:16 (protein, listed as Betaproteobacteria sp.)
chain: EDAARYLAVIDAGSSGSRLHLYERTAAERSVAVKQLFEAKAGEALSSFERSPGDAGPRGIQPLLEQLLDRLALLNIERSAVHVHVLATAGMRRLDADNPAAAQVIYQSVRHTLSSAGVTARRIETLSGHLEGVYAWVDVNDLSGALASTPAGATVAVIEVGGASAQLAYSGEALAGAPVTAVRLNGRSHQVVSLTWLGLGQDEARRAMLNAARSRSNADEEHCYPDNRKAAGGLSAFDADGSRHLVARGRFSFEQCSEMYDAVIRPFDLPPLATAIRQSRRPLVGLASVYFSLADWQVIGQPGTLASTLRGQCEGEDAYGDKVIGFIRRDPKNRFAQTACANGTFIHALLFGPAGLRVDPAQVSAVARINGQPPSWARGFALLGR
B7: CRC25082: Acid phosphatase (Class A), accession WP_050460978.1, SEQ ID NO:19 (protein, listed as Herbaspirillum autotrophicum)
chain: KGAAGFLNGQTAPDSLAILPPPPAEDSVAFQADKAQYETGHVLRDPERVEQARQDADYRNFGHAFSAAFGMEISATHTPVLYQLLTEVLQDSHDYAMKAAKNHYKRVRPFVVYKDPTCTPGQDEKMALSGSYPSGHASFGWAAALVLAEINPARQTEILQRGYAFGKSRVICGAHWQSDVDNGQLMGAAVVAALHSNSQFAAALNAAKNEFAGLRAQDNKK
B8: CRC22112: GDA1/CD39 family enzyme, accession KTD66016.1, SEQ ID NO:10 (protein, listed as Legionella santicrucis)
chain: ESAECTEHQCMAVVDAGSTGSRAHIFAYDLDETNTPSQIHEIWSKKIKPGLATIEANQDTIDAYLTILFSGAPKQNIPVYFYATGGMRLIPQTKQKLYYKEIQNWFNQQSIWQLIEAKTITGNDEALYDWLAVNYHIGTLKSSTTEPIGVMDIGGASVQIAFPIPKDVETNKSSQVELDLYGKHLNLFVHSFLGLGQNEVTHQLLDTNSCFSEGYPLPGGNLGQGDAVICQQEVSSLINRVHKVQSEVQPTLATNRITMWYAIGGLTNLVESEPFQFQNNQITNQDLLQQANSLICHQQWEGLSTQFPDNEYIESFCLLPAFYYALMIDGYGISVTQPVKYISPRENLDWTTGVVLHH

How the values were obtained:
[1] = ATPase activity at 0.05 ppm enzyme on 0.1 mM ATP (absorbance 620 nm); assay type: biochemical; conditions: for Activity on ATP (absorbance at 620 nm, blank subtracted), pH 5.0: 50 mM IVIES buffer pH 5; for Activity on ATP (absorbance at 620 nm, blank subtracted), pH 6.0: 50 mM IVIES buffer pH 6
Protocol: Enzyme activity towards ATP or ADP at pH 3 to 9: The ability of candidate enzymes to degrade ATP or ADP to AMP and free phosphate (Pi) was measured using a standard malachite green phosphate detection kit (Sigma Aldrich cat no. MAK307). The enzyme reactions were carried out in 96-well plates with a total volume of 150 μL and contained 250 μM of a substrate, 50 mM of a buffer, 5 mM CaCl2, and a variable concentration of enzyme. The substrate was ATP or ADP. The buffer was glycine (pH 3), acetate (pH 4, 4.5, 5), bis-Tris (pH 5.5, 6, 6.5), or Tris (pH 7, 8, 9). The concentration of enzyme varied from about 1 μg/mL to 1 ng/mL and was adjusted based on the activity of the enzyme so that the amount of phosphate released during the assay was with the dynamic range of the assay (5-100 μM phosphate). The enzyme concentration was determined by the absorbance at 280 nm and using the predicted molecular weight and molar extinction coefficient to calculate the concentration. The enzyme reaction was initiated by the addition of 15 μL enzyme with 135 μL of the other reaction components such that the final reaction composition was as previously described. The reaction was stopped after 5 min by mixing 80 μL of the reaction mixture with 20 μL of the malachite green working reagent. The malachite green working reagent was prepared according to the manufacturer's protocol by mixing 100 parts reagent A with 1 part reagent B. Phosphate standard solutions (0-80 μM) and a negative control reaction without enzyme were also mixed with the malachite green working reagent. All samples were tested in duplicate. The malachite green reaction mixture was allowed to rest at room temperature for 45-60 min and the absorbance at 620 nm was measured. Lastly, the absorbance of the phosphate standards were used to convert the absorbance readings of each sample into phosphate concentrations and the negative control was subtracted from each reaction.
Enzymes of interest were assayed against ATP substrate. The ATPase activity was measured at 0.05 ppm concentration in 50 mM IVIES buffer pH 6 and pH 5 with 0.1 mM ATP as substrate as described in Example 1. Commercial potato apyrase was used as reference. The absorbance at 620 nm was measured and the absorbance of a blank sample (water) was subtracted from each sample.

[2] = pH profile of enzymes on 1 mM ATP; assay type: biochemical; conditions: 50 mM trisodium citrate/citric acid, 5 mM CaCl2, relative to the highest value
Protocol: The pH profile of additional enzymes of interest was assayed using 1 mM ATP, in 50 mM trisodium citrate/citric acid buffer with 5 mM CaCl2. Absorbance was read at 620 nm and all values were set relative to the highest one. Commercial potato apyrase was used as reference. […]

Row | Molecule | Activity on ATP (absorbance at 620 nm, blank subtracted), pH 5.0 [1] | Activity on ATP (absorbance at 620 nm, blank subtracted), pH 6.0 [1] | Relative activity on ATP, pH 3 [2] | Relative activity on ATP, pH 3.5 [2] | Relative activity on ATP, pH 4 [2] | Relative activity on ATP, pH 4.5 [2] | Relative activity on ATP, pH 5 [2] | Relative activity on ATP, pH 5.5 [2] | Relative activity on ATP, pH 6 [2] | Relative activity on ATP, pH 6.5 [2]
1 | B1 | 0.07 | 0.10 |  |  |  |  |  |  |  | 
2 | B2 | 0.43 | 0.21 | 0.0 | 0.0 | 0.0 | 0.3 | 0.6 | 0.8 | 0.9 | 1.0
3 | B3 | 0.36 | 0.25 | 0.0 | 0.0 | 0.0 | 0.0 | 0.2 | 0.6 | 0.8 | 1.0
4 | B4 | 0.36 | 0.11 | 0.1 | 0.0 | 0.0 | 0.1 | 0.3 | 0.5 | 1.0 | 1.0
5 | B5 | 0.50 | 0.28 | 0.0 | 0.0 | 0.0 | 0.0 | 0.4 | 0.8 | 1.0 | 1.0
6 | B6 | 0.13 | 0.22 | 0.0 | 0.0 | 0.0 | 0.1 | 0.4 | 0.7 | 1.0 | 0.8
7 | B7 | 0.93 | 0.65 | 0.0 | 0.0 | 0.0 | 0.1 | 0.3 | 0.7 | 1.0 | 0.8
8 | B8 | 0.04 | 0.06 |  |  |  |  |  |  |  | 
